# Where two headings read alike, the source gives them in different places.
# What was measured:
# [1] = target: FLAG-MCL1 (Homo sapiens, UniProt Q07820); format: binding; settings: COS cell lysate, anti-HA immunoprecipitation
# [2] = target: p53 (Homo sapiens, UniProt P04637); test: Coimmunoprecipitation of fortilin and p53 from U2OS cell lysates; format: binding; parameters: endogenous in cells; host or cells: U2OS
# Procedure: As in example 2, studies were initiated to determine whether p53 and Fortilin specifically interact in U2OS cells. Six million U2OS cells stably expressing either HA-fortilin or HA-only were suspended in lysis-binding-wash buffer (50 mM HEPES, pH7.5, 70 mM KCl, 0.5 mM ATP, 5 mM MgSO4, 1 mM DTT, 0.1% NP40, 2 mg/mL BSA, Aprotinin, PMSF, MG132 and protease inhibitor cocktail). Cells were then mechanically disrupted by nitrogen excavitation method. Cleared total cell lysates were incubated with […] anti-HA antibody (3F10, Roche), followed by the incubation with anti-mouse IgG conjugated to magnetic beads (Dynal USA) and extensive wash with lysis-binding-wash buffer.
# Further experiments were conducted to determine in vivo immunoprecipitation of fortilin by p53. Twenty million U2OS cells were suspended in lysis-binding buffer (50 mM HEPES, pH7.5, 70 mM KCl, 0.5 mM ATP, 5 mM MgSO4, 1 mM DTT, 0.001% NP40, 2 mg/mL BSA, Aprotinin, PMSF, MG132 and protease inhibitor cocktail). Cells were then mechanically disrupted by nitrogen excavitation method. Cleared total cell lysates were divided equally into two eppendorf tubes. To the first tube, anti-p53 antibody (DO-1, […]) was added, while […] control monoclonal antibody was added to the second tube. After incubation, formed complexes were precipitated by goat anti-mouse IgG conjugated to magnetic beads (Dynal USA), followed by extensive wash. […]
# [3] = system: MCL1; format: cell-based
# [4] = target: T1, MCL1 (Homo sapiens, UniProt Q07820); test: Yeast two-hybrid assay, X-gal filter lift; format: binding; settings: Saccharomyces cerevisiae SFY526 cells
# T1 sequence (Q07820 whole entry, the tested form may be a part): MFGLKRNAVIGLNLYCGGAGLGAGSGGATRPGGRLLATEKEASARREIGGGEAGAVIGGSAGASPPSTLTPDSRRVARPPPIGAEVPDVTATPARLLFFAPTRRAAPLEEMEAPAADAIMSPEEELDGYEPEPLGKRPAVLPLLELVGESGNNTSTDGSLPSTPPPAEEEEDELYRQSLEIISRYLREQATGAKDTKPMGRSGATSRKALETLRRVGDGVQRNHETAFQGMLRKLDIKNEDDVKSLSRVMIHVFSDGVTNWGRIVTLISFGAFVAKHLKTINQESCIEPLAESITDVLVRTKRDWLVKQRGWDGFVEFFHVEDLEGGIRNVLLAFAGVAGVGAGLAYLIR
# From the text: Yeast two-hybrid assay. Saccharomyces cerevisiae SFY526 cells (CloneTech) were cotransformed with (a) empty pAS2.1 vector or pAS2.1 vector containing a full-length MCL1 construct and (b) empty pACT2 vector or pACT2 vector containing FL1, the original clone isolated from yeast two-hybrid screening and representative of the nearly full-length Fortilin molecule (amino acids 5-172). FL1 was redesignated as FortilinΔ5-172. Transformed cells were selected on SD plates lacking tryptophan and leucine (SD/-Trp/-Leu plates) for 7 days and subjected to a X-gal filter lift assay as described above. The blue color that developed within 8 hours was considered to represent a positive interaction.
# The yeast two-hybrid system was employed to evaluate any interaction between Fortilin and MCL1. Saccharomyces cerevisiae SFY526 cells were co-transformed with pAS2.1 or pAS2.1-MCL1 and pGAD GH or pGAD GH-FL1, the 5th-172st amino acids of Fortilin. Transformed cells were selected on SD/-Trp/-Leu plates. Grown colonies on these selection plates were subjected to a X-gal filter lift assay, as the reporter gene was […] under the control of a promoter containing the element recognized by the DNA binding domain. […] MCL1 consists of four BH (Bcl-2 homology) domains and two PEST (proline (P), glutamic acid (E), serine (S) and threonine (T)) sequences. “CHT” denotes the C-terminus Hydrophobic Tail. […]
# [5] = target: T1, MCL1; test: In vitro pull-down assay of HA-tagged Fortilin or mutants with MCL1; format: binding; settings: in vitro translated 35S-labeled proteins, anti-HA pull-down
# [6] = target: T1, MCL1; test: In vivo coimmunoprecipitation assay in U2OS stable transfectants of Fortilin and mutants; settings: anti-HA immunoprecipitation
# From the text: In vivo coimmunoprecipitation assay. COS-7 cells (2.5×10^6) were cotransfected with pcDNA3-Fortilin-HA or pcDNA3 and with FLAG-MCL1/pFLAG-CMV or pFLAG-CMV vectors using FuGENE6 (Roche Molecular Biochemicals), according to the manufacturer's instructions. […] Formed complexes were precipitated by sheep anti-rat antibodies conjugated to Dynabead™ (Dynal USA); washed with Buffers A and B; eluted into SDS gel loading buffer; and subjected to SDS-PAGE, Western blot transfer and immuodetection with anti-HA (16B12; Covance, Richmond, Calif.) and anti-FLAG (M2; Sigma) antibodies. […] Cells were harvested by scraping, washed with chilled PBS, suspended in Buffer C (Buffer A supplemented with 0.02% NP-40), and lysed by a nitrogen cavitation method (PARR Instrument Co). […] Formed complexes were precipitated by sheep anti-rat antibodies conjugated to Dynabeads™ (Dynal USA); washed with Buffers C; eluted into SDS gel loading buffer; and subjected to SDS-PAGE, Western blot transfer and immuodetection with anti-HA (16B12; Covance, Richmond, Calif.) and anti-MCL1 (Santa Cruz Biotechnology) antibodies.
# [7] = system: U2OS cells; settings: U2OS stable transfectants of HA-tagged Fortilin or deletion mutants, 5 μg/mL etoposide 48 hours
# From the text: Generation and characterization of U2OS cells stably expressing Fortilin. U2OS cells were transfected with empty pcDNA6, a mammalian expression vector containing a blasticidine resistance gene (Invitrogen, Carlsbad, Calif.), or with pcDNA6 vector encoding wild-type Fortilin, by using FuGENE6 (Roche Molecular Biochemicals) according to the manufacturer's instructions. Transfected cells were selected for approximately 3 weeks and characterized by Western blot analysis. For the cytotoxicity assay, U2OS cells stably expressing wild-type Fortilin (U2OS.F) and U2OS cells stably harboring empty pcDNA6 (U2OS.E) were seeded in a 96 well plate in quadruplicate. For the investigation of dose response, cells were challenged with various concentrations of etoposide (0-20 μg/mL) for 48 hours. For the time course study, cells were challenged with 5 μg/mL of etoposide and harvested after various incubation periods (0-96 hours). In both cases, the cell media were assayed for the lactate dehydrogenase (LDH) activity released from the cytosol of damaged cells, using a cytotoxicity detection kit (Roche Molecular Biochemicals) according to the manufacturer's instructions. The cytotoxicity index was calculated as follows: (LDH activity in the media−background LDH activity)÷(LDH activity in the medium of cells lysed by 1% Triton X-100−background LDH activity)×100.
# Cell death assay. U2OS cells stably expressing Fortilin or its mutants were seeded in 96-well plates in triplicate. Cells were then challenged with 5 μg/mL of etoposide (Sigma) for 48 hours. Then the cell media were assayed for the lactate dehydrogenase (LDH) activity released from the cytosol of damaged cells, using a Cytotoxicity Detection Kit (Roche Molecular Biochemicals), according to the manufacturer's instructions. The cytotoxicity index was calculated as follows: (LDH activity in the media−background LDH activity)/(LDH activity in the medium of the cells lysed by 1% Triton X-100−background LDH activity)×100.
# Statistical analysis. For analysis of the statistical significance of differences in cytotoxicity indices among cells stably transfected with Fortilin, its mutants or control plasmids, Student's t-test was performed using a commercial software (Minitab Inc., State College, Pa.). In all cases, a P-value less than 0.05 was considered to be statistically significant.
# FLAG-MCL1, sequence (Q07820 whole entry): as the sequence (Q07820 whole entry, the tested form may be a part) above
# p53, sequence (P04637 whole entry, species assumed): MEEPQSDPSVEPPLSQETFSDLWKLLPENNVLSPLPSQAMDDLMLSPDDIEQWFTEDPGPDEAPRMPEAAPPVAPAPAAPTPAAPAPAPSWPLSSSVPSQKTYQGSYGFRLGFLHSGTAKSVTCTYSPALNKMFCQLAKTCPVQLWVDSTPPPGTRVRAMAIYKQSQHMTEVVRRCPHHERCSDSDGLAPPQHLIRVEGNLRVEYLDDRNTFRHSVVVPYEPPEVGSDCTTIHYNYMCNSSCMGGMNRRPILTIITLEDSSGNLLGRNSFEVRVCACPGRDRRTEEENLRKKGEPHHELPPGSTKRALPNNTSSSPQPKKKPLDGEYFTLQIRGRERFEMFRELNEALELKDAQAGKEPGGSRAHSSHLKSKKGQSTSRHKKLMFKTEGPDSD
Molecule,co-precipitation of FLAG-MCL1 in vivo [1],co-precipitation of fortilin and p53 in vivo [2],intracellular localization of MCL1 [3],interaction with MCL1 in yeast (X-gal activity) [4],interaction / co-immunoprecipitation with MCL1 in vitro [5],interaction / co-immunoprecipitation with MCL1 in vitro ([5]; listed as Fortilin (5-172)),co-immunoprecipitation of MCL1 in vivo [6],cytotoxicity index relative to control transfectants [7],cytotoxicity index relative to control transfectants ([7]; listed as fortilinΔ5-172)
Fortilin-HA: influenza hemagglutinin-tagged Fortilin,FLAG-MCL1 was co-precipitated only in the presence of immunoprecipitated Fortilin-HA,the presence of fortilin was necessary and sufficient for the co-precipitation of p53,MCL1 was consistently localized in the nucleus just as it was in the cells transfected with empty vector,,,,,,
"FortilinΔ5-172: nearly full-length Fortilin molecule (amino acids 5-172) (protein, left off: small tags and cut ends) RDLISHDEMFSDIYKIREIADGLCLEVEGKMVSRTEGNIDDSLIGGNASAEGPEGEGTESTVITGVDIVMNHHLQETSFTKEAYKKYIKDYMKSIKGKLEEQRPERVKPFMTGAAEQIKHILANFKNYQFFIGENMNPDGMVALLDYREDGVTPYMIFFKDGLEMEKC",,,,X-gal activity was observed,interacted,co-immunoprecipitated MCL1 in vitro,co-immunoprecipitated MCL1,significantly lower,significantly lower than the cytotoxicity index of control cells

# Source: patent US7691567B2, “Methods and compositions relating to fortilin, an anti-apoptotic molecule, and modulators of fortilin” (Board of Regents, the University of Texas System, priority 2000, dated 2010)
